The results in this text go back to patent publication US20200270351A1 (Janssen / Centocor, published 2020).

For this experiment, the target named is T1, mutant L858R/T790M EGFR on NCI-H1975 cells (human, UniProt P00533 25-1210).
T1 construct: whole, on cells; these cells carry both this EGFR and wild type c-Met; also called H1975 target cells; HER1
As to the kind of experiment: confocal imaging of AF647-labeled antibody in co-culture of M1 or M2c macrophages and H1975 target cells (data not shown). The procedure:
Differentiated macrophages were harvested and plated onto CellCarrier96 ultra plates at 1,00,000 cells/well (Perkin-Elmer; Cat#6055302) overnight. Assays were performed using both adhered and non-adhered target cells. For assays with adhered target cells, the H1975 NucLight Red cells were plated at 20,000/well, adhered for 4 hours, then treated with labeled Ab cocktail for 1 hour at 4° C.

B1: JNJ-61186372 (JNJ-372), IgG1 anti-EGFR/c-Met bispecific antibody (bispecific antibody)
heavy 1: not shown
light 1: not shown
heavy 2: not shown
light 2: DIQMTQSPSSVSASVGDRVTITCRASQGISNWLAWFQHKPGKAPKLLIYAASSLLSGVPSRFSGSGSGTDFTLTISSLQPEDFATYYCQQANSFPITFGQGTRLEIKRTVAAPSVFIFPPSDEQLKSGTASVVCLLNNFYPREAKVQWKVDNALQSGNSQESVTEQDSKDSTYSLSSTLTLSKADYEKHKVYACEVTHQGLSSPVTKSFNRGEC
notes: Produced in a cell line incorporating low levels (<9%) of fucose
As to B1, the binding result is listed as “binds”.

B2: JNJ-372.IgG2sigma (Fc effector silent JNJ-372) (bispecific antibody, V domains shown)
VH 1: QVQLVESGGGVVQPGRSLRLSCAASGFTFSTYGMHWVRQAPGKGLEWVAVIWDDGSYKYYGDSVKGRFTISRDNSKNTLYLQMNSLRAEDTAVYYCARDGITMVRGVMKDYFDYWGQGTLVTVSS
VL 1: AIQLTQSPSSLSASVGDRVTITCRASQDISSALVWYQQKPGKAPKLLIYDASSLESGVPSRFSGSESGTDFTLTISSLQPEDFATYYCQQFNSYPLTFGGGTKVEIK
VH 2: QVQLVQSGAEVKKPGASVKVSCETSGYTFTSYGISWVRQAPGHGLEWMGWISAYNGYTNYAQKLQGRVTMTTDTSTSTAYMELRSLRSDDTAVYYCARDLRGTNYFDYWGQGTLVTVSS
VL 2: DIQMTQSPSSVSASVGDRVTITCRASQGISNWLAWFQHKPGKAPKLLIYAASSLLSGVPSRFSGSGSGTDFTLTISSLQPEDFATYYCQQANSFPITFGQGTRLEIK
notes: Used AF488- or AF647-labeled in the assays; also called IgG2σ; EGFR/cMet IgG2G Ab
Consider B2, for which the binding result was “binds”.
